The target in this experiment is pGBKT7-53 (control bait). Put plainly: two-hybrid; β-galactosidase activity assay (Yeast β-galactosidase Assay Kit) on a colony from a DDO plate, 37 °C, OD 420 nm; average of three measurements.

Results on one substance are retold here after article PMC5625703.

Substance “pGADT7-T (control prey) (natural protein)” gave a β-galactosidase activity of 401 units.
